Assay results published in the supplement of paper PMC7877785.
± gives the uncertainty stated by the source.

Assay: self-splicing fitness, log relative to wild type (ln ratio); higher = more splicing; Tetrahymena group I intron in knt gene, E. coli kanamycin selection, DiMSum; sequences stand for … in CUCUCU…GGAGGGAAAAGUUAUCAGGCAUGCACCUGGUAGCUAGUCUUUAAACCAAUAGAUUGCAUCGGUUUAAAAGGCAAGACCGUCAAAUUGCGGGAAAGGGGUCAACAGCCGUUCAGUACCAAGUCUCAGGGGAAACUUUGAGAUGGCCUUGCAAAGGGUAUGGUAAUAAGCUGACGGACAUGGUCCUAACCACGCAGCCAAGUCCUAAGUCAACAGAUCUUCUGUUGAUAUGGAUGCAGUUCACAGACUAAAUGUCGGUCGGGGAAGAUGUAUUCUUCUCAUAAGAUAUAGUCGGACCUCUCCUUAAUGGGAGCUAGCGGAUGAAGUGAUGCAACACUGGAGCCGCUGGGAACUAAUUUGUAUGCGAAAGUAUAUUGAUUAGUUUUGGAGUACUCGUGGUCG
Procedure, shortened: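 Pooled colonies went to amplicon sequencing on an Illumina HiSeq 2500 after six replicate transformations. The plates were LB agar with 100 μg/mL carbenicillin, 50 μM IPTG and 0.2% rhamnose, with or without 25 μg/mL kanamycin, incubated overnight at 37°C or 30°C. The E. coli BL21(DE3) library had all eight P1ex-region intron nucleotides randomised, the intron placed in the knt kanamycin-resistance gene on pET-22b(+). DiMSum fitness is the error-weighted combination of replicate fold changes, kanamycin against none, normalised to wild type.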

| Sequence | self-splicing fitness (ln) (30 °C) | self-splicing fitness (ln) (37 °C) |
| --- | --- | --- |
| CGGUAGCAAUAUUACGGUAA | -2.99 ± 0.29 | -3.12 ± 0.3 |
| CGGUAGCAAUAUUACGUGGG | -3.79 ± 0.17 | -3.11 ± 0.14 |
| CGGUAGCAAUAUUACGUGUG | -0.17 ± 0.062 | 0.0947 ± 0.09 |
| CGGUAGCAAUAUUACGUUGG | -1.26 ± 0.091 | -0.39 ± 0.084 |
| CGGUAGCAAUAUUACGUUUA | -3.46 ± 0.2 | -2.03 ± 0.13 |
| CGGUAGCAAUAUUACGUUUU | -3.83 ± 0.26 | -2.41 ± 0.19 |
| CGUAAGCAAUAUUACGAAAC | -2.84 ± 0.32 | – |
| CGUAAGCAAUAUUACGAACC | -0.935 ± 0.24 | -1.46 ± 0.24 |
| CGUAAGCAAUAUUACGACUC | -3.64 ± 0.3 | -0.95 ± 0.17 |
| CGUAAGCAAUAUUACGAGUA | -4.09 ± 0.39 | -1.93 ± 0.21 |
| CGUAAGCAAUAUUACGAUUU | -2.66 ± 0.14 | -1.58 ± 0.12 |
| CGUAAGCAAUAUUACGCAAG | -1.99 ± 0.13 | -1.01 ± 0.13 |
| CGUAAGCAAUAUUACGCCAU | -3.78 ± 0.24 | -2.7 ± 0.23 |
| CGUAAGCAAUAUUACGCCCA | -1.83 ± 0.19 | -0.135 ± 0.24 |
| CGUAAGCAAUAUUACGCCCU | -1.4 ± 0.16 | -0.426 ± 0.16 |
| CGUAAGCAAUAUUACGCCUC | -4.31 ± 0.47 | -1.44 ± 0.44 |
| CGUAAGCAAUAUUACGCUUA | -3.67 ± 0.37 | -2.91 ± 0.23 |
| CGUAAGCAAUAUUACGGAAU | -3.8 ± 0.43 | -1.85 ± 0.22 |
| CGUAAGCAAUAUUACGGAGU | -3.13 ± 0.17 | -2.89 ± 0.19 |
| CGUAAGCAAUAUUACGGCAU | -3.27 ± 0.27 | -2.37 ± 0.15 |
| CGUAAGCAAUAUUACGGUCC | -2.31 ± 0.18 | -2.18 ± 0.24 |
| CGUAAGCAAUAUUACGGUGA | -3.29 ± 0.17 | -3.18 ± 0.22 |
| CGUAAGCAAUAUUACGGUGC | -2.65 ± 0.15 | -3.7 ± 0.31 |
| CGUCAGCAAUAUUACGAAAG | -0.9 ± 0.073 | 0.129 ± 0.096 |

| Sequence | self-splicing fitness (ln) (30 °C) | self-splicing fitness (ln) (37 °C) |
| --- | --- | --- |
| CGUCAGCAAUAUUACGAAUU | -2.82 ± 0.2 | -0.915 ± 0.14 |
| CGUCAGCAAUAUUACGACGA | -1.34 ± 0.2 | -1.2 ± 0.21 |
| CGUCAGCAAUAUUACGAGAA | -2.97 ± 0.38 | -2.09 ± 0.29 |
| CGUCAGCAAUAUUACGAGCU | -3.17 ± 0.13 | -1.45 ± 0.13 |
| CGUCAGCAAUAUUACGAUGG | -1.27 ± 0.054 | -0.0354 ± 0.084 |
| CGUCAGCAAUAUUACGCCAA | -3.6 ± 0.3 | -1.73 ± 0.18 |
| CGUCAGCAAUAUUACGCUAG | -0.963 ± 0.098 | -0.795 ± 0.15 |
| CGUCAGCAAUAUUACGCUGG | -2.6 ± 0.3 | -2.14 ± 0.34 |
| CGUCAGCAAUAUUACGGAGA | -3.44 ± 0.29 | -2.76 ± 0.27 |
| CGUCAGCAAUAUUACGGGGC | -2.73 ± 0.2 | -3.05 ± 0.32 |
| CGUCAGCAAUAUUACGGUGC | -2.31 ± 0.11 | -3.54 ± 0.31 |
| CGUCAGCAAUAUUACGUACU | -0.663 ± 0.1 | -0.361 ± 0.12 |
| CGUCAGCAAUAUUACGUAGA | -1.3 ± 0.069 | -0.865 ± 0.1 |
| CGUCAGCAAUAUUACGUAGC | -2.81 ± 0.12 | -2.29 ± 0.14 |
| CGUCAGCAAUAUUACGUCGC | -3.45 ± 0.34 | -1.88 ± 0.36 |
| CGUCAGCAAUAUUACGUGGU | -3.59 ± 0.12 | -2.5 ± 0.13 |
| CGUCAGCAAUAUUACGUUAG | -0.494 ± 0.065 | -0.365 ± 0.094 |
| CGUCAGCAAUAUUACGUUGU | -3.9 ± 0.23 | -2.12 ± 0.18 |
| CGUGAGCAAUAUUACGAAUC | -2.66 ± 0.2 | -2.34 ± 0.28 |
| CGUGAGCAAUAUUACGAGAU | -3.4 ± 0.26 | -1.57 ± 0.24 |
| CGUGAGCAAUAUUACGAUAA | -4.37 ± 0.39 | -2.68 ± 0.23 |
| CGUGAGCAAUAUUACGCGAC | -2.65 ± 0.35 | -2.21 ± 0.36 |
| CGUGAGCAAUAUUACGCGCC | -2.85 ± 0.36 | -1.95 ± 0.28 |
